Experimental data reported in US20200087662, “INHIBITION OF POLY(A) BINDING PROTEIN AND THE TREATMENT OF PAIN” (Board of Regents, The University of Texas System, published 2020).

Molecular target: PABPC1 (residues 1-383) (Homo sapiens, UniProt P11940 P11940:1-383)
Test: FP; 50 mM HEPES, 5 mM EDTA, 250 mM KCl, 10 mM DTT, 0.5 mg/mL BSA, 0.05% Tween-20, yeast total RNA competitor
Conditions: label: Cy3 or 3' biotin
Method: Equilibrium dissociation constants were determined by florescence anisotropy measurements of either unmodified adenosine 12 nucleotide RNA or the Poly(A) SPOT-ON to recombinant human PABPC1 (residues 1-383). Binding reactions were conducted in 50 μL of buffer containing 50 mM HEPES, 5 mM EDTA, 250 mM KCl, 10 mM DTT, 0.5 mg/mL BSA, 0.05% Tween-20, 0.1 mg/mL yeast competitor total RNA (Ambion), and 0.5 nM Cy3-labeled RNA. Measurements were recorded on a Tecan Spark multimode plate reader in triplicate. Data were fit using Kalidagraph as described⁶³

Sequence of PABPC1 (residues 1-383) (P11940 1-383, one chain of several): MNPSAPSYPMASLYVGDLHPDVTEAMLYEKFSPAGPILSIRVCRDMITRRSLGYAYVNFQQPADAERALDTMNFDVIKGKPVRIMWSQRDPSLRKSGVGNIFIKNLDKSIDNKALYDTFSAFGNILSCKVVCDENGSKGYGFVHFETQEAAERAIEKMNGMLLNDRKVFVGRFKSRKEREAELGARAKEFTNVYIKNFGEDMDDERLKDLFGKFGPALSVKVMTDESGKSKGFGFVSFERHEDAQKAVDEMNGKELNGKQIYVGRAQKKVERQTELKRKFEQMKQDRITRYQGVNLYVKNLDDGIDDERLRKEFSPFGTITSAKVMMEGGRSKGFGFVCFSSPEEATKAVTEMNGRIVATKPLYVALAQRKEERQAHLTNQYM

For AAAAAAAAAAAA (ssRNA, 2'-OMe at all riboses; PS at the 5'-most and 3'-most linkages) [Poly(A) SPOT-ON], which Kd is on record?
Its Kd is 301 nM.
